Reference: patent US20230265217A1 (TWIST BIOSCIENCE, published 2023)
Numbering of substitutions follows the chain as printed.

B1: 7-26 (VHH)
VHH: EVQLVESGGGLVQPGGSLRLSCAASGSTFSINAMGWFRQAPGKEREFVAGITSSGGYTNYADSVKGRFTISADNSKNTAYLQMNSLKPEDTAVYYCAADGVPEYSDYASGPVWGQGTLVTVSS
B2: 3-31 (VHH)
VHH: B1 VHH
notes: also called 3-31_ExpiCHO
B3: 3-28 (VHH, not shown: a dimerising Fc or GST)
VHH: EVQLVESGGGLVQPGGSLRLSCAASGFTFRRYDMGWFRQAPGKEREFVSAISGGLAYYADSVKGRFTISADNSKNTAYLQMNSLKPEDTAVYYCAVDLSGDAVYDWGQGTLVTVSS
B4: 7-30 (VHH, not shown: a dimerising Fc or GST)
VHH: EVQLVESGGGLVQPGGSLRLSCAASGRTFSMHAMGWFRQAPGKEREFVASISSQGRTNYADSVKGRFTISADNSKNTAYLQMNSLKPEDTAVYYCAAEVRNGSDYLPIDWGQGTLVTVSS
B5: 5A-1 (VHH)
VHH: EVQLVESGGGLVQPGGSLRLSCAASGGTFSSIGMGWFRQAPGKEREFVAAISWDGGATAYADSVKGRFTISADNSKNTAYLQMNSLKPEDTAVYYCAKEDVGKPFDWGQGTLVTVSS
B6: 6A-3 (VHH)
VHH: EVQLVESGGGLVQPGGSLRLSCAASGFTFSPSWMGWFRQAPGKEREFVATINEYGGRNYADSVKGRFTISADNSKNTAYLQMNSLKPEDTAVYYCARVDRDFDYWGQGTLVTVSS
B7: 6A-63 (VHH)
VHH: EVQLVESGGGLVQPGGSLRLSCAASGQTFNMGWFRQAPGKEREFVAAIGSGGSTSYADSVKGRFTISADNSKNTAYLQMNSLKPEDTAVYYCWRLGNDYFDYWGQGTLVTVSS
B8: 7-32 (VHH)
VHH: EVQLVESGGGLVQPGGSLRLSCAASGSTFSVNAMGWFRQAPGKEREFVAGVTRGGYTNYADSVKGRFTISADNSKNTAYLQMNSLKPEDTAVYYCAADGVPEYSDYASGPVWGQGTLVTVSS
B9: 7-8 (VHH)
VHH: B1 VHH with S30T, A49S, T52S, S53H, S54N, Y57T
B10: 7-6 (VHH, not shown: a dimerising Fc or GST)
VHH: EVQLVESGGGLVQPGGSLRLSCAASGRIFYPMGWFRQAPGKEREFVAAVRWSSTGIYYTQYADSVKGRFTISADNSKNTAYLQMNSLKPEDTAVYYCAAALSEVWRGSENLREGYDWGQGTLVTVSS
B11: 7-31 (VHH, not shown: a dimerising Fc or GST)
VHH: EVQLVESGGGLVQPGGSLRLSCAASGFTFSNYSMGWFRQAPGKEREFVAAIHWNGDSTAYADSVKGRFTISADNSKNTAYLQMNSLKPEDTAVYYCAAQTEDSAQYIWGQGTLVTVSS
B12: 7-29 (VHH, not shown: a dimerising Fc or GST)
VHH: EVQLVESGGGLVQPGGSLRLSCAASGRTHSIYPMGWFRQAPGKEREFVASITSYGDTNYADSVKGRFTISADNSKNTAYLQMNSLKPEDTAVYYCAARRWIPPGPIWGQGTLVTVSS
B13: 7-21 (VHH)
VHH: EVQLVESGGGLVQPGGSLRLSCAASGRTISRYTMGWFRQAPGKEREFVASITSGGSTAYADSVKGRFTISADNSKNTAYLQMNSLKPEDTAVYYCAKEDVGKPFDWGQGTLVTVSS
B14: 7-22 (VHH, not shown: a dimerising Fc or GST)
VHH: B13 VHH with S30T, E98Q
B15: 7-40 (VHH)
VHH: B13 VHH with I29F, S30R, S53K, G54F, A58N
B16: 7-41 (VHH)
VHH: B13 VHH with I29F, R31T, T33V, T52S, G54R, S56I, A58H
B17: 7-45 (VHH)
VHH: B13 VHH with I29L, A58N
B18: 3-24 (VHH, not shown: a dimerising Fc or GST)
VHH: EVQLVESGGGLVQPGGSLRLSCAASGINFSRYGMGWFRQAPGKEREFVASITYLGRTNYADSVKGRFTISADNSKNTAYLQMNSLKPEDTAVYYCALRVRPYGQYDWGQGTLVTVSS
B19: 8-3 (VHH, not shown: a dimerising Fc or GST)
VHH: EVQLVESGGGLVQPGGSLRLSCAASGTTLDYYAMGWFRQAPGKEREFVAAISWSGGSTAYADSVKGRFTISADNSKNTAYLQMNSLKPEDTAVYYCAREDYYDSSGYSWGQGTLVTVSS
B20: 8-10 (VHH, not shown: a dimerising Fc or GST)
VHH: EVQLVESGGGLVQPGGSLRLSCAASGFIGNYHAMGWFRQAPGKEREFVAAVTWSGGTTNYADSVKGRFTISADNSKNTAYLQMNSLKPEDTAVYYCAREGYYYDSSGYPYYFDYWGQGTLVTVSS
B21: 8-06 (VHH, not shown: a dimerising Fc or GST)
VHH: EVQLVESGGGLVQPGGSLRLSCAASGFTFDYYAMGWFRQAPGKEREFVSAIDSEGRTSYADSVKGRFTISADNSKNTAYLQMNSLKPEDTAVYYCARWGPFDIWGQGTLVTVSS
notes: also called 8-6
B22: 7-17 (VHH, not shown: a dimerising Fc or GST)
VHH: EVQLVESGGGLVQPGGSLRLSCAASGFSLDYYGMGWFRQAPGKEREFVAAITSGGTPHYADSVKGRFTISADNSKNTAYLQMNSLKPEDTAVYYCASAYNPGIGYDWGQGTLVTVSS
B23: 7-24 (VHH, not shown: a dimerising Fc or GST)
VHH: EVQLVESGGGLVQPGGSLRLSCAASGFTFSRHAMNWFRQAPGKEREFVSTITGSGGSTNYADSVKGRFTISADNSKNTAYLQMNSLKPEDTAVYYCAREVGLYYYGSGSSSRRLLGRIDYYFDYWGQGTLVTVSS
B24: 3-17 (VHH, not shown: a dimerising Fc or GST)
VHH: EVQLVESGGGLVQPGGSLRLSCAASGRTSSSAVMGWFRQAPGKEREFVAAINRGGSTIYVDSVKGRFTISADNSKNTAYLQMNSLKPEDTAVYYCATGPYRSYFARSYLWGQGTLVTVSS

Biological target: T1, Antibody 178-08_His 501.V2 (27079) (SARS-CoV-2, UniProt P0DTC2 14-685)
T1 construct: domain: S1; also called TB178-8
Assay: Carterra SPR

Binder	Kd
B1	74.9 nM
B2	96700 nM
B3	22 nM

Biological target: T2, Antibody 178-10_His CA_W152C_L452R_D614G (27081) (SARS-CoV-2, UniProt P0DTC2 14-685)
T2 construct: domain: S1; also called CA variant S1; California variant S1
Assay: Carterra SPR

Binder	Kd	binding result
B1	34.8 nM	–
B4	55.9 nM	–
B2	41 nM	–
B5	12.7 nM	–
B6	26.8 nM	–
B7	–	no binding

Biological target: T3, Antibody 178-09_His B.1.1.7 (27080) (SARS-CoV-2, UniProt P0DTC2 14-685)
T3 construct: domain: S1; also called TB178-9
Assay: Carterra SPR

Binder	Kd
B1	22.7 nM
B4	32 nM
B2	16.1 nM
B3	16.6 nM

Biological target: T1, Antibody 178-08_His 501.V2 (27079)
Assay: Carterra SPR
Remark: another data set of the same source

Binder	binding result	Kd
B8	no binding	–
B1	–	74.9 nM
B4	no binding	–
B2	–	96700 nM
B9	no binding	–
B10	no binding	–
B11	no binding	–
B12	no binding	–
B13	no binding	–
B14	no binding	–
B15	no binding	–
B16	no binding	–
B17	no binding	–
B18	–	586 nM
B19	–	1.7 nM
B20	no binding	–
B21	no binding	–
B22	no binding	–
B3	–	22 nM
B23	no binding	–
B24	no binding	–

Biological target: T2, Antibody 178-10_His …
Assay: Carterra SPR
Remark: another data set of the same source

Binder	binding result	Kd
B8	no binding	–
B1	–	34.8 nM
B4	–	55.9 nM
B2	–	41 nM
B9	no binding	–
B10	no binding	–
B11	no binding	–
B12	no binding	–
B13	–	277 nM
B14	–	698 nM
B15	no binding	–
B16	–	95.5 nM
B17	no binding	–
B18	no binding	–
B19	–	100 nM
B20	no binding	–
B21	no binding	–
B22	no binding	–
B3	no binding	–
B23	no binding	–
B24	no binding	–

Biological target: T3, Antibody 178-09_His B.1.1.7 (27080)
Assay: Carterra SPR
Remark: another data set of the same source

Binder	Kd	binding result
B8	62.4 nM	–
B1	22.7 nM	–
B4	32 nM	–
B2	16.1 nM	–
B9	–	no binding
B10	42.4 nM	–
B11	388 nM	–
B12	54.8 nM	–
B13	35.6 nM	–
B14	41.7 nM	–
B15	–	no binding
B16	35.6 nM	–
B17	43.4 nM	–
B18	2610 nM	–
B19	40.5 nM	–
B20	377 nM	–
B21	141 nM	–
B22	39.8 nM	–
B3	16.6 nM	–
B23	–	no binding
B24	–	no binding

Biological target: T4, S1 RBD L452R E484Q (Acro) (SARS-CoV-2, UniProt P0DTC2 319-537)
T4 construct: domain: S1 RBD; also called SARS-COV-2 RBD India Var; L452R E484Q S1; India variant mutation L452R E484Q
Assay: Carterra SPR

Binder	binding result
B8	no binding
B4	no binding
B9	no binding
B10	no binding
B11	no binding
B12	no binding
B13	no binding
B14	no binding
B15	no binding
B16	no binding
B17	no binding
B18	no binding
B19	no binding
B3	no binding
B23	no binding
B24	no binding

Biological target: T5, SARS-CoV-2 S1 [S1N-C52H4] (SARS-CoV-2, UniProt P0DTC2 16-685)
T5 construct: domain: S1
Assay: Carterra SPR

Binder	Kd
B2	4.12 nM
